One molecule from patent US20250000991A1, “NECTIN-4 ANTIBODIES AND ANTIBODY-DRUG CONJUGATES” (Eli Lilly and Company, priority 2023, published 2025) can be followed below.

Experiment [1] relates to UMUC3-Luc-GFP + UMUC3-hNectin4 clone F7. Put plainly: Bystander killing of UMUC3-Luc-GFP cells co-cultured with UMUC3-hNectin4 clone F7 (ONE-Glo). The class given is cell-based, human. Particulars: UMUC3-hNectin-4 cloneF7/UMUC3-Luciferase-GFP 4:1, 5 days. On the procedure:
UMUC3 cell line was engineered to express human Nectin4 and two clonal populations with different levels of expression were selected. In flat white clear-bottom 96-well plates, UMUC3-hNectin4 clone F7/UMUC3-Luc-GFP cells were mixed and seeded at a total of 1500 cells/well/100 ul with a ratio of 4:1 in assay medium (MEM+1× GlutaMax+10% Heat Inactivated Fetal Bovine Serum+1 mM sodium pyruvate). UMUC3-hNectin4 clone E3/UMUC3-Luc-GFP cells were mixed and seeded at a total of 2100 cells/well/100 ul with a ratio of 6:1 in assay medium. UMUC3-Luc-GFP cells were negative for nectin-4 expression. Plates were incubated at 37° C. with 5% CO2 overnight. […] Plates were read after 5-days treatment using ONE-GloTM Luciferase Assay System. […] Luminescence was read in the SpectraMax M5e. […] Percentage of UMUC3-Luc-GFP killing was calculated against no treatment as 0%. Data was graphed and analyzed using Graphpad Prism version 9.5.1. IC50 was determined via log(inhibitor) vs. response (three parameters) curve fitting for bystander activity and log(inhibitor) vs. response (four parameters) for free payload cytotoxicity. […] In experiments run as essentially described herein, the bystander effects of four nectin-4 ADCs described herein and enfortumab vedotin were evaluated using the UMUC3-hNectin-4 cloneF7/UMUC3-Luciferase-GFP cell pair. […]

The target in another experiment is T1, human Nectin-4 (Homo sapiens, UniProt Q96NY8).
T1 construct: His tag; purchased Acro Biosystems NE4-H52H3
T1 sequence (Q96NY8 32-510): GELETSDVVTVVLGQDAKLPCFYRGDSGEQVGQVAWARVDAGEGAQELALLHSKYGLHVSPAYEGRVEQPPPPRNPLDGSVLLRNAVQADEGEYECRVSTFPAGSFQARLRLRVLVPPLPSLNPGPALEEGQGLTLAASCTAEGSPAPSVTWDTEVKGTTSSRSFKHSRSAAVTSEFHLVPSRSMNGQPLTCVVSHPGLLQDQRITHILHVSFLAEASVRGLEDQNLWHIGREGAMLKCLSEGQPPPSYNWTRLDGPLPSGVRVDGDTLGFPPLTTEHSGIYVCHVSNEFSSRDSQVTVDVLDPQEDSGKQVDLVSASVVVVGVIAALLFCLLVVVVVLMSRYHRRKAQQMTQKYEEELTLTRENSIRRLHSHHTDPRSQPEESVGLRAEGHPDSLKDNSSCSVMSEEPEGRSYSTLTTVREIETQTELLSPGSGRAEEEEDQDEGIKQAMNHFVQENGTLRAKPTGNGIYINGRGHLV
The experiment in a line: Surface plasmon resonance (Biacore 8K+) binding of nectin-4 ADCs to human Nectin-4. Particulars: human Nectin-4, 37° C., ADC Formula XI DAR 8; n=3 mean ± SD, n=2 replicate values. On the procedure:
(§1) An anti-human Fc sensor surface was prepared by amine-coupling of goat anti-human IgG Fc (Southern Biotech Cat. No. 2014-01, Birmingham, AL) to a Biacore Series S CM4 (Cytiva Cat. No. BR-100534) sensor surface at 25° C. For immobilization, a running buffer of 10 mM HEPES, 150 mM NaCl, 0.05% Tween-20, pH 7.4 was used. Flow cells 1 & 2 of all 8 channels were activated with a 1:1 (v/v) mixture of 400 mM 1-Ethyl-3-(3-dimethylaminopropyl) carbodiimide hydrochloride (EDC) and […] N-Hydroxysuccinimide (NHS) at a flow rate of 10 uL/min for 7 minutes. Then the anti-human IgG Fc capture reagent was coupled to the sensor surface (diluted to 50 μg/mL in 10 mM Acetate pH 4.5 buffer) by injecting it in all flow cells and channels at a flow rate of 10 uL/min for 7 minutes. Remaining active groups were blocked by injecting 100 mM ethylenediamine (in 200 mM Borate buffer, pH 8.5) in all flow cells and channels at a flow rate of 10 uL/min for 7 minutes. All channels and flow cells were then preconditioned using three consecutive 1-minute injections of 75 mM phosphoric acid at 10 uL/min.
(§2) In each analysis cycle, a different ADC was captured on flow cell 2 of each channel by injecting it at 5 μg/mL and 10 uL/min. After capture, the same analyte was injected on flow cells 1 and 2 in all 8 channels for 2 minutes at 30 uL/n and dissociation was monitored for 10 minutes. After dissociation, all surfaces were regenerated with three 1-minute injections of 5 mM phosphoric acid at 10 uL/min. ADC capture and analyte cycles were repeated to obtain analyte binding of each ADC at concentrations of 0, 2.5, 7.4, 22, 67, 200 and 600 nM nectin-4.
(§3) Sensorgram data were fit globally with the default 1:1 binding model in Biacore Insight Evaluation Software v3.0.12.15655.

The next experiment relates to cyno Nectin-4. Put plainly: Surface plasmon resonance (Biacore 8K+) binding of nectin-4 ADCs to cyno Nectin-4. Particulars: cyno Nectin-4, 37° C., ADC Formula XI DAR 8, n=1. On the procedure:
as §1, §2, §3

The test system of the next experiment is rat Nectin-4. Put plainly: Surface plasmon resonance (Biacore 8K+) binding of nectin-4 ADCs to rat Nectin-4. Particulars: rat Nectin-4, 37° C., ADC Formula XI DAR 8, n=1. On the procedure:
as §1, §2, §3

Experiment [2] has as its system T24 mScarlet clone 5 Nectin-4 negative cells. The experiment in a line: Bystander killing of T24-mScarlet clone 5 cells co-cultured with T24-human nectin4 clone108 (imaging). The class given is cell-based. Particulars: T24-mScarlet clone5 : T24-human nectin4 clone108 9:1, 5 days, ADC Formula XI DAR 8; read-out: IC50 of bystander effect. On the procedure:
T24 cell line was engineered to express mScarlet and clonally selected to test in bystander assay. T24-mScarlet clone5 and T24-human nectin4 clone108 were mixed and seeded at a total of 1000 cells/well/100 ul with a ratio of 9:1 in culture medium (McCoy's 5A+1× GlutaMax+10% Heat Inactivated Fetal Bovine Serum+400 μg/ml G418) in flat clear bottom 96-well plates. T24 mScarlet clone 5 cells were negative for nectin-4 expression. Plates were incubated at 37° C. with 5% CO2 overnight. Next day, ADCs were added at final working concentration from 50 nM, 1:4 serially diluted in culture medium. Plates were covered with Breathe-Easy® sealing membrane, placed in BioSpa and scanned in Cytation5 every day for 5 days.
Images of T24-mScarlet cells were captured and analyzed by Cytation5 with Gen5 Image Prime 3.11. Percentage of T24-mScarlet cell killing was calculated by decreased Integrated Intensity (area×mean intensity), normalized to zero hour and no treatment. Data was graphed and analyzed using GraphPad Prism version 9.5.1. IC50 was determined via log(inhibitor) vs. response-variable slope (four parameters) curve fitting.

Several values for one entry are separate records, joined by “and”; a condition that tells them apart may be missing. Equal entries are not always repeated.

B1: Ab1a (conjugate)
heavy: QVQLVQSGAQVKKPGASVKVSCKASGYTFTGYYIHWVRQAPGQGLEWMGWINPNSGGTNYAQKFQGRVTMTRDTSISTAYMELSRLRSDDTAVYFCAREDWDFDYWGQGTLVTVSSASTKGPSVFPLAPSSKSTSGGTAALGCLVKDYFPEPVTVSWNSGALTSGVHTFPAVLQSSGLYSLSSVVTVPSSSLGTQTYICNVNHKPSNTKVDKRVEPKSCDKTHTCPPCPAPEAAGGPSVFLFPPKPKDTLMISRTPEVTCVVVSVSHEDPEVKFNWYVDGVEVHNAKTKPREEQYNSTYRVVSVLTVLHQDWLNGKEYKCKVSNKALPAPIEKTISKAKGQPREPQVYTLPPSREEMTKNQVSLTCLVKGFYPSDIAVEWESNGQPENNYKTTPPVLDSDGSFFLYSKLTVDKSRWQQGNVFSCSVMHEALHNHYTQKSLSLSPGK
light: EIVLTQSPGTLSLSPGERATLSCRTSQSVSSSYLAWYQQKPGQAPRLLIYGASNRATDIPDRFSGSGSGTDFTLTINRLEPEDFAVYYCQQYGSSPITFGQGTRLEIKRTVAAPSVFIFPPSDEQLKSGTASVVCLLNNFYPREAKVQWKVDNALQSGNSQESVTEQDSKDSTYSLSSTLTLSKADYEKHKVYACEVTHQGLSSPVTKSFNRGEC
As for B1, the “Bystander effect (in words)” value in experiment [1] was “potent bystander effects”. Besides, the ka is 2.83 × 10^5, 1/Ms and 4.24 × 10^5 1/Ms with human Nectin-4; 310000 M⁻¹ s⁻¹ with cyno Nectin-4; 252000 M⁻¹ s⁻¹ with rat Nectin-4. The kd was 4.02 × 10^−2, 1/s and 3.08 × 10^−2 1/s with human Nectin-4; 0.026 s⁻¹ at cyno Nectin-4; 0.0453 s⁻¹ at rat Nectin-4. Besides, the IC50 in experiment [2] amounted to 0.041 nM.
